From patent US20250295111A1, “ANTIMICROBIAL PEPTIDES OF ACTI[…] METHODS OF USE THEREOF” (THE REGENTS OF THE UNIVERSITY OF CALIFORNIA, priority 2023, published 2025) come the findings set out here.

In the test the test system is Saccharomyces cerevisiae. Description: Antimicrobial peptide inhibition assay (filter paper disk on YPD agar plate, zone of inhibition). The format is cell-based. To be noted: protein extract from recombinant E. coli BL21 (DE3) overexpressing the AMP, 6-mm filter paper disk on YPD agar plate, 30° C. for 24 h. The protocol:
A 102 amino acid AMP candidate from Streptosporangium becharense DSM 46887 (GenBank ID: MBB5817359.1) with a predicted molecular weight of 11.2 kDa, pI of 8.67 and charge of 3.5, was cloned in E. coli for functional validation. The sequence was codon optimized and sent to Twist Biosciences (San Francisco, CA) for synthesis and cloned into a pET-21 (+) expression vector. The plasmid DNA (pET-21 (+)_AMP_S.be) was then transferred into E. coli BL21 (DE3) strain with […] carbenicillin (MilliporeSigma, Burlington, MA) selection. To overexpress the short peptide, 100 mL of E. coli BL21 (DE3) harboring the recombinant plasmid was cultured in Luria-Bertani broth containing […] of carbenicillin at 37° C. until the mid-exponential phase. The overexpression was induced by addition of 0.1 mM isopropyl-b-D-thiogalactopyranoside (MilliporeSigma, Burlington, MA) at 25° C. and 120 rpm for 16 h. […]
Yeast Saccharomyces cerevisiae was used for the antimicrobial activity assessment with proteins extracted from the recombinant E. coli. […] After incubation at 30° C. for 24 h, the antimicrobial activity of the short peptide was determined by appearance of the zone of inhibition. To confirm the overexpression of the short peptide, the protein extract was analyzed using SDS-PAGE gel (12% Mini-PROTEAN_TGXTM Precast Gel, Bio-Rad Laboratories, Hercules, CA). […]

B1: AMP candidate from Streptosporangium becharense DSM 46887: 102 amino acid AMP candidate with signal peptide from Streptosporangium becharense DSM 46887, overexpressed in E. coli (protein)
chain: MKRIFLVPALTAGIFALTTGAAYASQYIAYEGPGFTGRSVLIDACGPSNIPYHGSYKWYGDGQSGRMYNQPNAHGVMHFRLPSNNNAEQRTPVGWQSIFIEC
modifications: Streptosporangium becharense
notes: 102 amino acid AMP candidate with signal peptide from Streptosporangium becharense DSM 46887, overexpressed in E. coli
With B1, the “antimicrobial activity determined by appearance of the zone of inhibition” value is reported as “Inhibition of Saccharomyces cerevisiae is demonstrated”. For the same molecule, the “antimicrobial activity determined by appearance of the zone of inhibition” value (listed as AMP candidate of Streptosporangium becharense DSM 46887) is “Inhibition of Saccharomyces cerevisiae”.
